*1 amine or outer side, *2 acyl side, *3 side chain or, on linkers, in order; H or OH if unused. Where no end group is shown, it is not given here. Side-chain parts run from the residue outwards. [ ]: non-standard residue; d: D form. The star is where a group is joined. C20 diacid = O=C(O)CCCCCCCCCCCCCCCCCCC(=O)*; C18 diacid = O=C(O)CCCCCCCCCCCCCCCCC(=O)*; C16 diacid = O=C(O)CCCCCCCCCCCCCCC(=O)*; γGlu = O=C(O)[C@H](CCC(=O)[*:2])N[*:1]; Desaminohistidyl = O=C(CCc1c[nH]cn1)*; βAsp = O=C(O)[C@H](CC(=O)[*:2])N[*:1]; Palmitoyl = CCCCCCCCCCCCCCCC(=O)*; Trx = NC[C@H]1CC[C@H](C(=O)O)CC1; Dap = NC[C@H](N)C(=O)O; AEEA = NCCOCCOCC(=O)O; Aib = CC(C)(N)C(=O)O; Inp = O=C(O)C1CCNCC1
Tests used:
[1] = target: T1, human serum albumin (HSA) (human, UniProt P02768 25-609, biotinylated); experiment: competition SPA on biotinylated HSA beads; competitor 125I-labelled acylated GLP-1 analogue
T1 construct: also called biotinylated HSA

human GLP-1 receptor = human GLP-1 receptor (human, UniProt P43220 24-463); experiment: cell-based or functional assay
Sequence of human GLP-1 receptor (P43220 24-463): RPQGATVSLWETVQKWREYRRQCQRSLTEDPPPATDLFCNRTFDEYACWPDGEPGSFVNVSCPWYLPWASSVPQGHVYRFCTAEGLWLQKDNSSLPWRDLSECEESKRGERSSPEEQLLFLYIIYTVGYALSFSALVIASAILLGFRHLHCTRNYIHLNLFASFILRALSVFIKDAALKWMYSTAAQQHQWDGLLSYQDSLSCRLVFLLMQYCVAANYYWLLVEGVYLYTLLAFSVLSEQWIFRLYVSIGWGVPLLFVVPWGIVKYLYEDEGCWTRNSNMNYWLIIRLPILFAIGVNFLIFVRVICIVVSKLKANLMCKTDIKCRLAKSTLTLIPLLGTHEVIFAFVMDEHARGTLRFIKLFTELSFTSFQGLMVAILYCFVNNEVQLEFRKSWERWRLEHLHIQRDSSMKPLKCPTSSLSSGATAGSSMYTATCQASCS

[2] = target: isolated N-terminal extracellular domain of the GLP-1R receptor (nGLP-1R) (UniProt P43220); experiment: SPA; displacement of 125I-Exendin-4(9-39) from biotinylated nGLP-1R
Sequence of isolated N-terminal extracellular domain of the GLP-1R receptor (nGLP-1R) (P43220 24-145 limits assumed): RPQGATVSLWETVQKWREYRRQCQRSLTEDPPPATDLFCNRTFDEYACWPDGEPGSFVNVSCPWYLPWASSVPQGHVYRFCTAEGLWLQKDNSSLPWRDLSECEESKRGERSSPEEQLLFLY

Molecule | EC50 [1] | Potency [EC50/nM], cAMP formation (human GLP-1 receptor) | IC50 [2]
N-epsilon31{2-(2-{2-[2-(2-{2-[4-Carboxy-4-(17-carboxy-heptadecanoylamino)butyrylamino]ethoxy}ethoxy)acetylamino]ethoxy}ethoxy)acetyl}-[Aib8,Glu22,Val25,Arg26,Lys31,Arg34,Arg35,Arg37)]GLP-1(7-37)yl [Arg39,Arg40,Arg41] (peptide) | 800 nM | 0.74 nM | –
Liraglutide (peptide) | – | 0.1 nM | 1500 nM
[Desaminohistidyl]AEGTFTSDVSSYLEEQAAREFIEWLVRGRK([AEEA-AEEA-γGlu-Trx-C20 diacid]) | – | 0.66 nM | –
H[Aib]EGTFTSDVSSYLEEQAAREFIEWLVKGRPK (not fully specified (residue 32); printed as [Aib8,Glu22,Arg26,Glu30,Pro37]GLP-1-(7-37)Lys [2-(2-{2-[4-Carboxy-4-(4-carboxy-4-{4-[4-(16-1H-tetrazol-5-yl-hexadecanoylsulfamoyl)butyrylamino]butyrylamino}butyrylamino)butyrylamino]ethoxy}ethoxy)acetyl]) [[Aib8,Glu22,Arg26,Glu30,Pro37]GLP-1-(7-37)Lys …] | 150 to 200 nM | 0.29 nM | –
H[Aib]EGTFTSDVSSYLEEQAAREFIEWLVKGK([AEEA-AEEA-C18 diacid])GE-NH2 | 200 to 400 nM | 0.22 nM | –
[Desaminohistidyl]AEGTFTSDVSSYLEEQAAREFIEWLVRGRK([AEEA-AEEA-γGlu-Palmitoyl])-NH2 (SMILES CCCCCCCCCCCCCCCC(=O)N[C@@H](CCC(=O)NCCOCCOCC(=O)NCCOCCOCC(=O)NCCCC[C@H](NC(=O)[C@H](CCCNC(=N)N)NC(=O)CNC(=O)[C@H](CCCNC(=N)N)NC(=O)[C@@H](NC(=O)[C@H](CC(C)C)NC(=O)[C@H](Cc1c[nH]c2ccccc12)NC(=O)[C@H](CCC(=O)O)NC(=O)[C@@H](NC(=O)[C@H](Cc1ccccc1)NC(=O)[C@H](CCC(=O)O)NC(=O)[C@H](CCCNC(=N)N)NC(=O)[C@H](C)NC(=O)[C@H](C)NC(=O)[C@H](CCC(N)=O)NC(=O)[C@H](CCC(=O)O)NC(=O)[C@H](CCC(=O)O)NC(=O)[C@H](CC(C)C)NC(=O)[C@H](Cc1ccc(O)cc1)NC(=O)[C@H](CO)NC(=O)[C@H](CO)NC(=O)[C@@H](NC(=O)[C@H](CC(=O)O)NC(=O)[C@H](CO)NC(=O)[C@@H](NC(=O)[C@H](Cc1ccccc1)NC(=O)[C@@H](NC(=O)CNC(=O)[C@H](CCC(=O)O)NC(=O)[C@H](C)NC(=O)CCc1c[nH]cn1)[C@@H](C)O)[C@@H](C)O)C(C)C)[C@@H](C)CC)C(C)C)C(N)=O)C(=O)O) | – | 0.16 nM | –
HXEGTFTSDVSSYLEEQAAREFIAWLVRGRK (not fully specified; Aib at 8; Lys37 is bound to the peptide through its epsilon amino group (epsilon-Lys37) and acylated at N-alpha with the side chain given in the name) | 200 to 400 nM | 0.08 nM | –
XAEGTFTSDVSSYLEEQAAREXIAWLVRGRK (desamino-histidine at 7; m-CF3-phenylalanine at 28; residue 37 acylated at N-epsilon with the side chain given in the name; C-terminal amide) | 1500 to 2000 nM | 0.35 nM | –
H[Aib]EGTFTSDVSSYLEEQAVREFIAK([AEEA-AEEA-γGlu-C18 diacid])LVKKK-NH2 (N-terminus assumed; SMILES CC[C@H](C)[C@H](NC(=O)[C@H](Cc1ccccc1)NC(=O)[C@H](CCC(=O)O)NC(=O)[C@H](CCCNC(=N)N)NC(=O)[C@@H](NC(=O)[C@H](C)NC(=O)[C@H](CCC(N)=O)NC(=O)[C@H](CCC(=O)O)NC(=O)[C@H](CCC(=O)O)NC(=O)[C@H](CC(C)C)NC(=O)[C@H](Cc1ccc(O)cc1)NC(=O)[C@H](CO)NC(=O)[C@H](CO)NC(=O)[C@@H](NC(=O)[C@H](CC(=O)O)NC(=O)[C@H](CO)NC(=O)[C@@H](NC(=O)[C@H](Cc1ccccc1)NC(=O)[C@@H](NC(=O)CNC(=O)[C@H](CCC(=O)O)NC(=O)C(C)(C)NC(=O)[C@@H](N)Cc1c[nH]cn1)[C@@H](C)O)[C@@H](C)O)C(C)C)C(C)C)C(=O)N[C@@H](C)C(=O)N[C@@H](CCCCNC(=O)COCCOCCNC(=O)COCCOCCNC(=O)CC[C@H](NC(=O)CCCCCCCCCCCCCCCCC(=O)O)C(=O)O)C(=O)N[C@@H](CC(C)C)C(=O)N[C@H](C(=O)N[C@@H](CCCCN)C(=O)N[C@@H](CCCCN)C(=O)N[C@@H](CCCCN)C(N)=O)C(C)C, GLP-1(7-36) = residues 1-30 of the entry) | 400 to 800 nM | 0.14 nM | –
H[Aib]EGTFTSDVSSYLEEQAAREFIAK([AEEA-AEEA-βAsp-Inp-C20 diacid])LVRGRG | 200 to 400 nM | 0.18 nM | –
[Desaminohistidyl]AEGTFTSDVSSYLEEQAAREFIEWLVRGRGEK([AEEA-AEEA-γGlu-C18 diacid]) [[desaminoHis7, Glu22, Arg26, Glu30, …] | 1500 to 2000 nM | 0.04 nM | –
[Desaminohistidyl]AEGTFTSDVSSYLEEQAAREFIEWLVRGK([AEEA-AEEA-γGlu-C16 diacid])GEK | > 2000 nM | 0.21 nM | –
H[Aib]EGTFTSDVSSYLEEQAAREFIK([AEEA-AEEA-βAsp-Inp-C20 diacid])WLVKGRG | 200 to 400 nM | 0.52 nM | –
H[Aib]EGTFTSDVSSYLEEQAVREFIAK([AEEA-AEEA-γGlu-C18 diacid])LVRRRR | > 2000 nM | 1.27 nM | –
H[Aib]EGTFTSDVSSYLEEQAVREFIAK([AEEA-AEEA-γGlu-C18 diacid])LV[Dap](2‑(bis-carboxymethylamino)acetyl)-NH2 (GLP-1(7-34) = residues 1-28 of the entry) | 150 to 200 nM | 0.34 nM | –
H[Aib]EGTFTSDVSSYLEEQAAREFIAWLVR[Aib]RK([AEEA-AEEA-γGlu-C18 diacid]) | 100 to 150 nM | 0.06 nM | –

Source: US20110082079A1 (Novo Nordisk, published 2011)
